Positions count from the first letter of the chain named.
B1: Ab8 (antibody, V domains shown)
VH: QVQLVQSGAEVKKPGASVKVSCKASGYTFFSYAMHWVRQAPGQRLEWMGWINAGNGNTKYSQKFQDRVTITRDTSATTAYMELSSLRSEDTAVYYCASWVFDYWGQGTPVTVSS
VL: DIVMTQTPLSSLVTLGQPASISCRSSQSLVHRDGNTYLSWLQQRPGQPPRLLIYKISNRFFGVPDRFSGSGAGTDFTLKISRVEAEDVGVYYCMQATQFPHTFGQGTKLEIK
notes: From Beacon screening; also called antibody Ab8
B2: Ab10 (antibody, V domains shown)
VH: not shown
VL: QSVVTQPPSVSAAPGQKVTISCSGSSSNIGNKKVSWYQQLPVTAPKLLIYDDNKRPSGIPDRFSGSKSGTSATLGITGLQTGDEADYYCATWDSSLRAVVFGGGTKLTVL
notes: also called antibody Ab10; parent antibody
B3: Ab10-3 (antibody, V domains shown)
VH: not shown
VL: B2 VL
notes: Single-residue CDR mutant of Ab10; also called antibody Ab10-3; mutant of Ab10
B4: Ab19 (antibody, V domains shown)
VH: QVQLQQSGPGLVKPSQTLSLTCAISGDSVSSSSAAWNWIRQSPSRGLEWLGRTYYRSKWYNDYAESVKSRITINPDTSKNQFSLQLNSVTPEDTAVYYCARRLTIVRGVMRGGMDVWGQGTTVTVSS
VL: DIVMTQSPDSLAVSLDERATINCKSSQNLLYSANNKDYLAWYQQKPGQPPKLLIYWASTRYSGIPDRFSGSGSGTDFTLTISSLQAEDVAVYYCQQYYSTPWTFGQGTKVEIK
notes: also called antibody Ab19
B5: Ab20 (antibody, V domains shown)
VH: B4 VH with Y54F, P75A
VL: B4 VL with A12T, V13G, L39I, P49S, T59I, I64V, Y98F
notes: also called antibody Ab20
B6: Ab16 (antibody, V domains shown)
VH: QVQLQQSGPGLVKPSQTLSLTCAISGDSVSSNSAAWNWIRQSPSRGLEWLGRTYYKSKWYNDYAVSVKSRMTINPDTSKNQFSLQLNSVTPEDTAVYYCARGGSAVFDYWGQGTLVTVSS
VL: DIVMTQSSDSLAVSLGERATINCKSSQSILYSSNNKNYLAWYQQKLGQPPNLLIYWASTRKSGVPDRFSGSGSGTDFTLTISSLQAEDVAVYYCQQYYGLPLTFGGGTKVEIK
notes: also called antibody Ab16
B7: Ab17 (antibody, V domains shown)
VH: B6 VH
VL: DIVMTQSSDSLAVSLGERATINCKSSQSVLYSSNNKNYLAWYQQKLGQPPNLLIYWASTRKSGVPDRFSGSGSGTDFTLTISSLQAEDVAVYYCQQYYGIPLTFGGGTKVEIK
notes: also called antibody Ab17
B8: Ab4 (antibody, V domains shown)
VH: QVQLVQSGAEVKKPGASVKVSCKASGYTFTSNAMHWVRQAPGQRLEWMGWINAGNGNTKYSQKFQGRVTITRDTSASTAYMELSSLRSEDTAVYYCARGYYDILTGYYTTDAFDIWGQGTMVTVSS
VL: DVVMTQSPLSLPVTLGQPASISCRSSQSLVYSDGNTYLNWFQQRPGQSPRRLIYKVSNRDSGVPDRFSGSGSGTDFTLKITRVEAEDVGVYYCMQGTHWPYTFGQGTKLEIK
notes: From Beacon screening; also called antibody Ab4
B9: Ab6 (antibody, V domains shown)
VH: QVQLQESGPGLVKPSGTLSLTCAVSGGSISSSNWWSWVRQPPGKGLEWIGEIDHSGTTTYNPSLKSRVTMSVDQSKNQFSLKLSSVTAADTAVYYCARDGSGSYEGYWGQGTLVTVSS
VL: DIQMTQSPSSLSASVGDRVTITCRASQAISNHLAWFQQKPGKAPKSLIYAASSLQSGVPSKFSGSGSGTDFTLTISSLQPEDFATYYCQQYHSYPITFGQGTRLEIK
notes: From Beacon screening; also called antibody Ab6
B10: Ab7 (antibody, V domains shown)
VH: QVQLQESGPGLVKPSETLSLTCAVSGGSISSSNWWSWVRQPPGKGLEWIGEIYHGVTTYNPSLKSRVTISVDNSKNQFSLKLSSVTAADTAVYYCARDGSGSYEGYWGQGTLVTVSS
VL: B9 VL with A28D, H32Y, S93Y
notes: From Beacon screening; also called antibody Ab7
B11: Ab12 (antibody, V domains shown)
VH: QVQLVQSGAEVKKPGASVKVSCKASGYTFTSHAVHWVRQAPGQRLEWMGWINAGKGNTKYSQKFQGRVTITRDTSATTAYMELSSLRSEDTAVYYCARGRAVAFDPWGQGTLVTVSS
VL: RSALTQPPSASGSPGQSVTVSCTGTNSDIGGYNYVSWYKQHPGNAPKLMIYEVNKRPSGVPDRFSGSKSGNTASLTVSGLQTEDEADYYCASYAGDNNLVFGGGTKLTVL
notes: also called antibody Ab12

Legend:
[1] = biological target: T1, Human TCTP (translationally controlled tumor protein) (human, UniProt P13693 1-172); assay: ELISA, human TCTP coated at 1 µg/ml, antibody titrated, OD 450 nm
T1 construct: also called HRF; Tpt1
T1 sequence: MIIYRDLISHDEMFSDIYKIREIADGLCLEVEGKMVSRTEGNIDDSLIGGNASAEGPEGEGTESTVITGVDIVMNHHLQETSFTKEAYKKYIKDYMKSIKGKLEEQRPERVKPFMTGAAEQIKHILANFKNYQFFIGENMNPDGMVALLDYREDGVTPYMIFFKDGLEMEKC
Description: ELISA was carried out to quantitatively analyze the binding capacity of selected antibodies to antigens. To this end, human TCTP was attached to an ELISA plate at a concentration of 1 μg/ml and then treated with antibodies of various concentrations to check the relative binding capacity. As a result of the measurement, all of antibodies Ab1, Ab2, Ab3, Ab4, Ab5, Ab6, Ab7, Ab8, Ab9, Ab12, Ab13, Ab14, Ab15, Ab17, Ab18, Ab19, Ab20, Ab21, and Ab22 were confirmed to bind well to human TCTP (FIGS. 1a and 1b).

[2] = biological target: T1, Human TCTP (translationally controlled …); assay: SPR, Biacore 8K, human TCTP immobilised on CM5 chip, antibody as analyte, 1:1 model
Description: The antigen binding capacity of antibodies selected in Example 1 was analyzed using a SPR technique. The device used was Biacore 8K (Ge Healthcare). Human TCTP was immobilized on a chip, and antibodies were shed at 6 or 7 different concentrations. A CM5 chip (GE Healthcare, Cat. 29-1275-56), a regeneration buffer (10 mM glycine-HCl (GE Healthcare)), and a driving buffer HBS-EP+, and the like were used. For kinetic analysis, the binding time was set to 100 or 120 seconds, the flow rate was set to 30 or 50 μl/min in the binding phase, and in the dissociation phase, the dissociation time was set to 300 or 360 seconds, and the flow rate was set to 30 or 50 μl/min. The fitting was carried out using a 1:1 combined model, and BIACore Evaluation Software (GE healthcare) was used as the evaluation software.

[3] = biological target: T1, Human TCTP (translationally controlled …); assay: competition ELISA: human TCTP coated at 1 µg/ml, 150 nM TLR2 plus titrated antibody, bound TLR2 detected; % inhibition of TLR2-TCTP binding
mouse TCTP = biological target: T2, mouse TCTP (mouse, UniProt P63028 1-172); assay: ELISA on mouse TCTP, binder titrated as scFv (axis [scFv] Log(nM)), OD450 [panel Mouse TCTP]
T2 sequence (looked up): T1 sequence with M13L, N42A, I67V, I99L, R107K, K130N, Y159F

[4] = biological target: T3, mouse TCTP in which the 13th leucine was replaced with methionine (mouse, UniProt P63028 1-172); assay: ELISA on mouse TCTP mutants
T3 construct: One of several mouse-to-human replacement mutants; also called mouse TCTP L13M
T3 sequence (looked up): T1 sequence with N42A, I67V, I99L, R107K, K130N, Y159F

[5] = biological target: T1, Human TCTP (translationally controlled …); assay: ELISA, selection of hybridoma antibodies

Row | Binder | Kd [2] [nM] | IC50 (read off the curve) [3] [nM] | also measured
1 | B1 | 14 | ~6 | EC50 (read off the curve) [1]: ~0.02 µg/mL
2 | B2 | 0.224 | – | binding result (mouse TCTP): binds; binding result [4]: binds
3 | B3 | – | ~20 | EC50 (read off the curve) (mouse TCTP): ~5 nM
4 | B4 | 2.77 | – | –
5 | B5 | 0.704 | ~10 | –
6 | B6 | – | – | binding result [5]: binds
7 | B7 | 1.23 | – | –
8 | B8 | – | – | binding result [1]: binds
9 | B9 | 72.8 | – | –
10 | B10 | 107 | – | –
11 | B11 | 0.168 | ~10 | –

Source: patent publication US20250388694A1 (BOOSTIMMUNE, published 2025)
